The text below walks through data of US7964369 (Stanford University, dated 2011).

This experiment deals with T1, SOS vector alone (hSOS without GRAIL) (human, UniProt Q07889 1-1066).
T1 construct: Negative control bait of the yeast two-hybrid screen
T1 sequence (looked up): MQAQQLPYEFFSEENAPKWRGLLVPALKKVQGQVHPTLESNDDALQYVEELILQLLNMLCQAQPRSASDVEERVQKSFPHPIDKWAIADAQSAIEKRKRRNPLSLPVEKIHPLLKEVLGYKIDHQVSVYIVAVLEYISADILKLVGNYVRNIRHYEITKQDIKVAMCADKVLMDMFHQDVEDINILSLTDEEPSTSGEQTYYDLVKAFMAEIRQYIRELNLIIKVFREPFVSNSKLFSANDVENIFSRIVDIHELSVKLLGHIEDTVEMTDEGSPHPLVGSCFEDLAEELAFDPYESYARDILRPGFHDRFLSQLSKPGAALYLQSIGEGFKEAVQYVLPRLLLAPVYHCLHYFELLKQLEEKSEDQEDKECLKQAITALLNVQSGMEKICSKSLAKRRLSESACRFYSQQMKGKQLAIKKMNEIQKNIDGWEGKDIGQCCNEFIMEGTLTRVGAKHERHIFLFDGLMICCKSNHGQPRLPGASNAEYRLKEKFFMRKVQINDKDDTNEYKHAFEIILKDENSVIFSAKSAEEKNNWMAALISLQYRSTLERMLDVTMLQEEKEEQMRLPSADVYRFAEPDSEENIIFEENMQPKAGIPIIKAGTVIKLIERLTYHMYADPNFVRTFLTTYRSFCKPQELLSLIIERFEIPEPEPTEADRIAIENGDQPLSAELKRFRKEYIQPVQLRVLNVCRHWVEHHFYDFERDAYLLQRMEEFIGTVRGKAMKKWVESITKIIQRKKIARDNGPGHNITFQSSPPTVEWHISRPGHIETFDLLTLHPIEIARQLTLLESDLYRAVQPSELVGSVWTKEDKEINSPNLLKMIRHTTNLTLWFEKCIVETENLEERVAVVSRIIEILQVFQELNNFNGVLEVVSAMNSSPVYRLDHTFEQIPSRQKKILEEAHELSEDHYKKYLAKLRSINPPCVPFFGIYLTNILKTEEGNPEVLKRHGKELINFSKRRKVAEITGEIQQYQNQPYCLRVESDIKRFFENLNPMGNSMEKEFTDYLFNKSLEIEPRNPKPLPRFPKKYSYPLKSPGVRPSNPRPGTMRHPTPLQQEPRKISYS
The experiment in a line: yeast two-hybrid (CytoTrap), secondary screen, growth on galactose at 37 C. As to the method:
Table I: A mouse liver library cloned into pMyr vector was purchased from Stratagene (La Jolla, CA). The C-terminal half of GRAIL, starting at F225 was PCR amplified, cloned into the pSOS vector, and used as bait. Yeast competent cells were co-transformed with either the bait and library or control vectors as described in the CytoTrap instruction manual (Stratagene). More than 5 x 10^5 clones were screened. Colonies displaying growth on galactose but not glucose at 37° C. were considered to be putative positives and were evaluated in a secondary screen. Colonies growing in the secondary screen on galactose at 37° C. and in the presence of the GRAIL-SOS bait vector, but not the SOS vector alone, were considered true interactors and sequenced.
Yeast and bacterial two-hybrid analysis. A mouse liver library cloned into pMyr vector was purchased from Stratagene (La Jolla, Calif.). The C-terminal half of Grail, starting at F225, was PCR amplified, cloned into the pSOS vector, and used as bait. Yeast competent cells were co-transformed with either the bait and library or control vectors as described in the CytoTrap instruction manual (Stratagene). More than 5 ×10^5 clones were screened. Colonies displaying growth on galactose but not glucose at 37° C. were considered to be putative positives and were used on a secondary screen. […]

B1: clone 6A-36 (98% identical to human FLJ20113, OTUBAIN-1) (enzyme, mouse, UniProt Q7TQI3 97-271, looked up)
chain: GFSHLEALLDDSKELQRFKAVSAKSKEDLVSQGFTEFTIEDFHNTFMDLIEQVEKQTSVADLLASFNDQSTSDYLVVYLRLLTSGYLQRESKFFEHFIEGGRTVKEFCQQEVEPMCKESDHIHIIALAQALSVSIQVEYMDRGEGGTTNPHVFPEGSEPKVYLLYRPGHYDILYK
notes: Partial clone of mouse otubain-1; also called 525 bp insert; 525 bp cDNA fragment; not shown: myristoylation signal of the pMyr plasmid
For B1, the binding result is listed as “no binding”.
